The source of these data is patent US20170137467A1 (CHROMOTEK, published 2017).

In assay [1] the target is T1, GFP with a C-terminal BC2 tag (GFPBC2T) (human, UniProt P42212 1-238 = GFP).
T1 construct: Expressed in E. coli; also called C-terminally BC2-tagged GFP
The experiment in a line: binding studies with GFPBC2T.

In the next assay the target is T2, BC2T S8E library peptide (human).
T2 construct: also called BC2TS8X: E
T2 peptide: Ac-PDRKAAVEHWQQ-NH2
The experiment in a line: peptide library pulldown on immobilized Nb, LC-MS of supernatant; ratio vs GFP-Nb control (1 = not captured, 0 = captured). The text has this:
(§1) In total, 12 different BC2T libraries displaying all 20 proteinogenic amino acids in one single position of the peptide were used in immunoprecipitation experiments. […] The direct comparison with the GFP-Nb made it possible to determine the quantitative degree of peptide capture without the need of labeled standards. […] The more peptide was captured the more the value approximates 0. It was not possible to discriminate between isoleucine (I) and leucine (L) peptide versions since these peptides are isobaric.
(§2) To investigate the binding specificity of the BC2T and derived mutants peptide libraries for each amino acid position of the sequence […] (SEQ ID NO:4) were synthesized with acetyl and amide groups located at the N-termini or C-termini respectively (Intavis). […] Incubations were performed in 300 μl PBS/0.01% CHAPS for 1 h on a HulaMixer (Life Technologies). Subsequent to a centrifugation step 10 μl supernatant were analyzed in a LC-MS procedure. Peptides were separated using an UltiMate3000 RSLCnano System (Thermo Scientific), composed of a C18 PepMap100μ-Precolumn (300 μm×5 mm; particle size: 5 μm; pore size: 100 Å—Thermo Scientific) and a C18 analytical column (Acclaim Rapid Separation LC (RSLC) Column: 150 mm×5 mm; particle size: 2.2 μm; pore size: 100 Å—Thermo Scientific). A step gradient was applied starting at 8% and ending after 20 min at 30% eluent B (80% acetonitrile, 20% H₂O, 0.1% formic acid).

The target in another assay is T3, BC2T S8D library peptide (human).
T3 construct: also called BC2TS8X: D
T3 peptide: Ac-PDRKAAVDHWQQ-NH2
The assay is described as above.
Excerpt: as §1, §2

Assay [2] deals with T4, BC2T Q12D library peptide (human).
T4 peptide: Ac-PDRKAAVSHWQD-NH2
The description is as above.
Excerpt: as §1, §2

A further assay has as its target T5, BC2T H9D library peptide (human).
T5 peptide: Ac-PDRKAAVSDWQQ-NH2
The description is as above.
Excerpt: as §1, §2

In assay [3] the target is T6, BC2T W10E library peptide (human).
T6 construct: also called BC2TW10X: E
T6 peptide: Ac-PDRKAAVSHEQQ-NH2
The assay is described as above.
Excerpt: as §1, §2

Assay [4] has as its target T7, BC2T Q11D library peptide (human).
T7 peptide: Ac-PDRKAAVSHWDQ-NH2
The assay is described as above.
Excerpt: as §1, §2

Assay [5] has as its target T8, BC2T Q12E library peptide (human).
T8 peptide: Ac-PDRKAAVSHWQE-NH2
The assay is described as above.
Excerpt: as §1, §2

A further assay deals with T9, BC2T H9E library peptide (human).
T9 peptide: Ac-PDRKAAVSEWQQ-NH2
The assay is described as above.
Excerpt: as §1, §2

Assay [6] addresses T10, BC2T W10D library peptide (human).
T10 construct: also called BC2TW10X: D
T10 peptide: Ac-PDRKAAVSHDQQ-NH2
Described as above.
Excerpt: as §1, §2

The target in assay [7] is T11, BC2T Q11E library peptide (human).
T11 peptide: Ac-PDRKAAVSHWEQ-NH2
The assay is described as above.
Excerpt: as §1, §2

In assay [8] the target is T12, mCherry-Vimentin with C-terminal BC2 tag (mCherry-VIMBC2T) (human, UniProt P08670 1-466).
T12 construct: Expressed in HEK293T or HeLa cells; also called mCherry-VimentinBC2T; not shown: mCherry fluorescent protein
Briefly: Western blot probed with BC2-NbAF488.

For assay [9], the target named is T13, mCherry-Vimentin (untagged) (UniProt P08670 1-466).
T13 construct: Control without the BC2 tag; not shown: mCherry fluorescent protein
Briefly: Western blot probed with BC2-NbAF488.

For assay [10], the target named is T14, eGFP-PCNA with C-terminal BC2 tag (eGFP-PCNABC2T) (human, UniProt P12004 1-261).
T14 construct: Expressed in HEK293T or HeLa cells; not shown: eGFP
The experiment in a line: Western blot probed with BC2-NbAF488.

Assay [11] addresses T14, eGFP-PCNA with C-terminal BC2 tag …. Briefly: immunocytochemistry on fixed HeLa cells expressing GFP-PCNABC2T. On the procedure: After 24 h, cells were washed once with PBS and fixed with 4% w/v paraformaldehyde (PFA) in PBS for 15 min at RT or with methanol for 15 min at −20° C. After removal of the fixative and washing twice with PBS, cells were blocked and permeabilized with 3% w/v BSA and 0.1% v/v Triton X-100 in PBS for 1 h at RT. […] Unbound nanobody and DAPI were removed by washing 3 times with a mixture of PBS and 6% v/v 5 M NaCl in H₂O. Images of FIG. 4 b and FIG. 10 b were acquired with an Image Xpress micro XL system. Confocal images of FIG. 10 a were acquired with an ImageXpress Micro Confocal.

Assay [12] deals with T15, pTag2 peptide (biotinylated) (reading uncertain).
T15 construct: Immobilised on streptavidin biosensors
T15 peptide: {Biotin-ethylene glycol linker}-ADRVRAVSHWSS
Briefly: BLI, biotinylated peptide on streptavidin biosensor, BC2-Nb in solution, 1:1 model. On the procedure: (§3) Biolayer interferometry (BLI)-based affinity measurements were used to assess two improved variations of the original BC2T sequence (a: […], pTag1 SEQ ID NO:33; b: […], pTag2 SEQ ID NO:34) in comparison with the original BC2T sequence (c: BC2T SEQ ID NO:4).
(§4) The shaking rate was 1200 rpm. As a reference, each peptide was also incubated with BLItz buffer only according to the protocol above. […] The sensor was regenerated by sequential dips into 10 mM glycine pH 2.0 and BLItz buffer (repeated three times). Raw data were analysed using the software BLItz Pro (fortéBio) and a 1:1 binding model.
For orientation: BLI is a label-free optical method that tracks binding on a fibre tip over time.

The target of assay [13] is T16, pTag1 peptide (biotinylated) (reading uncertain).
T16 construct: Immobilised on streptavidin biosensors
T16 peptide: {Biotin-ethylene glycol linker}-PDRVRAVSHWSS
The description is as above. On the procedure:
as §3, §4

Assay [14] concerns the target T17, BC2T peptide (biotinylated) (human, reading uncertain).
T17 construct: Immobilised on streptavidin biosensors; also called original BC2T; wildtype BC2T
T17 peptide: {Biotin-ethylene glycol linker}-PDRKAAVSHWQQ
Described as above. On the procedure: as §3, §4

Ends that are not written are not given here. * marks the point of attachment. Biotin = O=C1N[C@H]2[C@H](CS[C@H]2CCCCC(=O)*)N1; ethylene glycol linker = not defined here

T14 sequence (P12004 other isoform, or with tags, fused parts or gaps limits assumed): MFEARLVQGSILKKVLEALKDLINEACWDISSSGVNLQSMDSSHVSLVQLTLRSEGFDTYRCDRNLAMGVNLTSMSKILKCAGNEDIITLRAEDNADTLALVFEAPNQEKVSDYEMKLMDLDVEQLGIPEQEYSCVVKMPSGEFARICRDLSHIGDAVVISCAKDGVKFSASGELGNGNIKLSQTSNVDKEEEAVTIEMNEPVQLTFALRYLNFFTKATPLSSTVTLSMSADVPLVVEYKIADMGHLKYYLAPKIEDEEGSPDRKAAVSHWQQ
T12 sequence (P08670 other isoform, or with tags, fused parts or gaps): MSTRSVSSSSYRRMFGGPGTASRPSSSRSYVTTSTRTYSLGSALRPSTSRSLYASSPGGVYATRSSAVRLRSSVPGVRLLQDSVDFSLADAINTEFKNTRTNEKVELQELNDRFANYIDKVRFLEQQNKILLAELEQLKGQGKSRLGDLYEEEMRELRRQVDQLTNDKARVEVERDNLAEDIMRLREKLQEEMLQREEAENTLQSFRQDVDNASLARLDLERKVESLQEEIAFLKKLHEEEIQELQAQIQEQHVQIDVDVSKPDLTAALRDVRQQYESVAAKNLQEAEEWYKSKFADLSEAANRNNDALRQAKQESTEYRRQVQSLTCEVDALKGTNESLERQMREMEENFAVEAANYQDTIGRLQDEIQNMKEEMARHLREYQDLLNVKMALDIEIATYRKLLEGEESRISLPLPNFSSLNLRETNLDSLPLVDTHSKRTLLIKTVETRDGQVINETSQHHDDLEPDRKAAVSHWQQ
T13 sequence (P08670 whole entry): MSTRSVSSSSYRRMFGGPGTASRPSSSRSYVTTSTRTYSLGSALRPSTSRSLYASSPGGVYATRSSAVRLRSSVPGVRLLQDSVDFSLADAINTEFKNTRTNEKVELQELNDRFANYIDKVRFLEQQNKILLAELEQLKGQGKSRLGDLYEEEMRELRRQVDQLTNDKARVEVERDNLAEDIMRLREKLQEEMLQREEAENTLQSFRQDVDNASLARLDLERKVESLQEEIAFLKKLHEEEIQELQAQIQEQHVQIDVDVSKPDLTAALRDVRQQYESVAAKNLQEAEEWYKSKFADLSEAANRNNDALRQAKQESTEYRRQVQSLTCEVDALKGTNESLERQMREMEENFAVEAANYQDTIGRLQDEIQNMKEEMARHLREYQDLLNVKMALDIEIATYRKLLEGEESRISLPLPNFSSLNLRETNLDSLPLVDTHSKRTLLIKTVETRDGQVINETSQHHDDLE

B1: BC2-NbC50A_C102S (VHH)
VHH: QVQLVESGGGLVQPGGSLTLSCTASGFTLDHYDIGWFRQAPGKEREGVSAINNSDDDTYYADSVKGRFTIFMDNAKDTVYLQMNSLKPEDTAIYYCAEARGSKRGRYEYDFWGQGTQVTVSS
notes: Mutant without the additional disulfide bond between CDR3 and FR2
For B1, the binding result in assay [1] is on record as “no binding”.

B2: BC2-Nb(R106S) (VHH)
VHH: QVQLVESGGGLVQPGGSLTLSCTASGFTLDHYDIGWFRQAPGKEREGVSCINNSDDDTYYADSVKGRFTIFMDNAKDTVYLQMNSLKPEDTAIYYCAEARGCKRGSYEYDFWGQGTQVTVSS
notes: Headlock mutant; immobilized on beads in the library pulldown
With B2, the ratio came to 1 with BC2T S8E library peptide; 0.9 in the assay with BC2T S8D library peptide; 0.9 in assay [2]; 0.5 with BC2T H9D library peptide; 1.1 in assay [3]; 0.6 in assay [4]. The ratio in assay [5] came out at 0.7; in the assay with BC2T H9E library peptide, 0.6; in assay [6] it was 1; in assay [7], 0.5.

B3: BC2-NbAF488 (VHH)
VHH: QVQLVESGGGLVQPGGSLTLSCTASGFTLDHYDIGWFRQAPGKEREGVSCINNSDDDTYYADSVKGRFTIFMDNAKDTVYLQMNSLKPEDTAIYYCAEARGCKRGRYEYDFWGQGTQVTVSS
modifications: AlexaFluor488 coupled chemically with the NHS-activated dye (sites not given)
notes: also called BC2-Nb488; fluorescently labeled BC2-Nb (AlexaFluor488); not shown: C-terminal 6xHis-tag added by the pHEN6 vector
Consider B3, for which the binding result in assay [8] is given as “binds”; in [9], “no binding”; in assay [10], “binds”.

B4: BC2-NbATTO647 (VHH)
VHH: QVQLVESGGGLVQPGGSLTLSCTASGFTLDHYDIGWFRQAPGKEREGVSCINNSDDDTYYADSVKGRFTIFMDNAKDTVYLQMNSLKPEDTAIYYCAEARGCKRGRYEYDFWGQGTQVTVSS
modifications: Atto647 coupled chemically with the NHS-activated dye (sites not given)
notes: also called fluorescently labeled BC2-Nb (ATTO647); not shown: C-terminal 6xHis-tag added by the pHEN6 vector
Regarding B4, the binding result in assay [11] was “binds”.

B5: BC2 nanobody (BC2-Nb) (VHH)
VHH: QVQLVESGGGLVQPGGSLTLSCTASGFTLDHYDIGWFRQAPGKEREGVSCINNSDDDTYYADSVKGRFTIFMDNAKDTVYLQMNSLKPEDTAIYYCAEARGCKRGRYEYDFWGQGTQVTVSS
notes: Alpaca VHH, 122 aa; in solution at 5-50 nM in the BLI assay
The Kd is the equilibrium constant for the complex coming apart. For orientation: koff means the rate constant with which the complex falls apart. As usually defined, the kon is the rate constant with which the complex forms. As for B5, the figures for the Kd in assay [12], in assay [13] and in assay [14] were 1.9 nM, 0.7 nM and 2.6 nM, respectively. Further, the koff in assay [12] was 0.0002 s⁻¹; in [13], 6.8e-05 s⁻¹; in assay [14], 0.0005 s⁻¹. The kon worked out at 110000 M⁻¹ s⁻¹ in [12], 92000 M⁻¹ s⁻¹ in assay [13] and 190000 M⁻¹ s⁻¹ in assay [14].
